The data set concerns MS2 coat protein. The data set is described as follows: apparent KD of MS2 coat protein; designed switch direction (-1 OFF switch, 1 ON switch): -1; higher = weaker reporter binding. In short, it runs like this:
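Each step of the titration lasted 0.8–1.5 h at the lowest concentration and 10–20 min at the highest. The protein, SNAP-549-labelled MS2 coat protein, went from 0.7 or 1.5 nM doubling to 3 µM over RNA switches transcribed on Illumina chips by stalled E. coli RNA polymerase. Normalised cluster fluorescence was curve-fitted, and the per-design median over clusters is given as apparent KD.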

Setting [1] is: Eterna round: R95, input ligand: microRNA oligo, concentration not stated.
[2] abbreviates: input ligand: microRNA oligo, concentration not stated.

For “CCAGCGUAUGUGAGGAUAUGCUGGUCCUUGGAUCAGCAGAAGGCACAUGAGGAUCACCCAUGUAGAGACGUUGG [JL bmx4 3.43] (puzzle: Brourd's mod of Exclusion 4)”, the “apparent KD of MS2 coat protein” value under setting [1] is 21.6 nM. As for “CCAGCGUAUGUGAGGAUAUGCUGGUCCUUGGAUCAGCAGAAGGCACAUGAGGAUCACCCAUGUGAUAACGUUGG [JL bmx4 3.39] (puzzle: Brourd's mod of Exclusion 4)”, under setting [1], the “apparent KD of MS2 coat protein” value stood at 46.6 nM. In the case of “CCAGCGUAUGUGAGGAUAUGCUGGUCCUUGGAUCAGCAGAAGGCACAUGAGGAUCACCCAUGUGGAAAAGUUGG [Mod of JL 23 - Jieux - Brourd's mod of Exclusion 4] (Eterna round: R97, puzzle: Brourd's mod of Exclusion 4)”, the “apparent KD of MS2 coat protein” value (input ligand: FMN 200 uM) was 164 nM and the “apparent KD of MS2 coat protein” value (input ligand: none) was 27.3 nM.

In the case of “CCAGCGUGUGUGAGGAUAUGCUGGUCCUUGGAUCAGCAGAAGGCACAUGAGGAUCACCCAUGUGAGGACGUUGG [JL bmx4 3.32] (puzzle: Brourd's mod of Exclusion 4)”, the “apparent KD of MS2 coat protein” value under setting [1] was determined as 19.9 nM. On to “CCAGCGUGUGUGAGGAUAUGCUGGUCCUUGGAUCAGCAGAAGGCACAUGAGGAUCACCCAUGUGAGUACGUUGG [JL bmx4 3.34] (puzzle: Brourd's mod of Exclusion 4)”, for which the “apparent KD of MS2 coat protein” value under setting [1] stood at 15 nM. Still for that read-out and setting: with “CCAGCUCGUGUUAGGAUAUCCAAGCUGCGGCUGGUGGAGAAGGGACAUGAGGAUCACCCAUGUAAUAAAGAAAA [On] (puzzle: Brourd's mod of Exclusion 4)” the figure was 21.4 nM; with “CCAGGCAGUGUGAGGAUAUCGUGGUCCUUGGAUCACGAGAAGGCACAUGAGGAUCACCCAUGUGAAUAGCUUGG [Mat - Exclusion 4 - JL Mod - D100] (puzzle: Brourd's mod of Exclusion 4)”, 21.9 nM; with “CCAGGCAGUGUGAGGAUAUGCUGGUCCUUGGAUCAGCAGAAGGCACAUGAGGAUCACCCAUGUGAAGAGCUUGG [JL bmx4 3.24] (puzzle: Brourd's mod of Exclusion 4)”, 24.1 nM. “CCAGUGUGCUUCAGGACAUGAGGAUCACCCAUGUUCGCAAAAUAGGAUAUUGGGUGUAGGCCGCGCAAGAAGGGUUAUGCGAAC [Disobeus] (Eterna round: R96, puzzle: Exclusion NG 3)”: the “apparent KD of MS2 coat protein” value amounted to 117 nM (input ligand: FMN 200 uM), 79.8 nM under setting [2] and 83.4 nM (input ligand: none). On to “CCAUAAAGGAAGGAUAUGCUAGACGAAAGUCUAGCAGAAGGUCCUACAUGAGGAUCACCCAUGUGGCCUCAUGG [Mat - Exclusion 6 - Eli Mod - D49] (Eterna round: R97, puzzle: Exclusion 6)”, for which the “apparent KD of MS2 coat protein” value was found to be 116 nM (input ligand: FMN 200 uM) and 198 nM (input ligand: none). Consider “CCAUAGUGAGGAUAUGUAAACGUGUUGGCGAAAUCAGCACGGCAGAAGGCACAUGAGGAUCACCCAUGUCCUGA [Eternabot (L2) Solution 45] (Eterna round: R97, puzzle: Exclusion 4)”, for which the “apparent KD of MS2 coat protein” value is, setting by setting: (input ligand: FMN 200 uM) 25.9 nM; (input ligand: none) 20.8 nM. With “CCAUAUAGGCGAGGAUAUACGCACCACUAACUAGUAGAAGGCGCACAUGAGGAUCACCCAUGUGAUUUCUCAAUAUUAUACAUC [Prohibition 72 - Jieux - Exclusion NG 1] (Eterna round: R96, puzzle: Exclusion NG 1)”, the “apparent KD of MS2 coat protein” value by setting is: (input ligand: FMN 200 uM) 174 nM; under setting [2], 107 nM; (input ligand: none) 157 nM. For the sequence “CCAUCGAGUGUGAGGAUAUGCUGGUCCAUAGAUCAGCAGAAGGCACAUGAGGAUCACCCAUGUGGAGACGGUGG [Mat - Exclusion 4 - JL Mod - D78] (Eterna round: R96, puzzle: Brourd's mod of Exclusion 4)”, under setting [2], the “apparent KD of MS2 coat protein” value turned out to be 31 nM. Consider “CCAUCGAGUGUGAGGAUAUGCUGGUCCAUAGAUCAGCAGAAGGCACAUGAGGAUCACCCAUGUGGAGACGGUGG [Mat - Exclusion 4 - JL Mod - D78] (puzzle: Brourd's mod of Exclusion 4)”, for which the “apparent KD of MS2 coat protein” value (Eterna round: R95, input ligand: FMN 200 uM) came to 418 nM; the “apparent KD of MS2 coat protein” value under setting [1] turned out to be 34.4 nM; the “apparent KD of MS2 coat protein” value (Eterna round: R95, input ligand: none) came out at 36.6 nM. As for “CCAUCGAGUGUGAGGAUAUGCUGGUCCUUGGAUCAGCAGAAGGCACAUGAGGAUCACCCAUGUGGAGACGGUGG [JL bmx4 3.18] (puzzle: Brourd's mod of Exclusion 4)”, the “apparent KD of MS2 coat protein” value under setting [1] was found to be 44.3 nM. The same measure, in the same setting: with “CCAUCGUGUGUGAGGAUAUGCUGGUCCUUGGAUCAGCAGAAGGCACAUGAGGAUCACCCAUGUGAAUACGGUGG [JL bmx4 3.21] (puzzle: Brourd's mod of Exclusion 4)” the figure was 17.8 nM.

On to “CCCAAGUCAGGAUAUGGAACACAGAGACAUCUCUGUGCCCACCAGAAGGGACAUGAGGAUCACCCAUGUGAUGA [Soesat] (puzzle: Exclusion 4)”, for which the “apparent KD of MS2 coat protein” value under setting [1] stood at 56.6 nM. Take “CCCACAAGCUUUUUGCUCGACAUGAGGAUCACCCAUGUAAAAUGGGUAAAUUUAAAUUUAAAUUUAUUUAAAUUGGG [-18.1, -41.9 kcal, A 34%] (Eterna round: R97, puzzle: Sensor, turn-off variant 1)”: the “apparent KD of MS2 coat protein” value was 80.9 nM (input ligand: FMN 200 uM) and 102 nM (input ligand: none). In the case of “CCCACAAGCUUUUUGCUCGACAUGAGGAUCACCCAUGUUGAAUGGGUUAUAUAUAUAUGAAACAUAUAUAUAUACCU [-24.7, -47.5 kcal, A 32%] (Eterna round: R97, puzzle: Sensor, turn-off variant 1)”, the “apparent KD of MS2 coat protein” value is, setting by setting: (input ligand: FMN 200 uM) 20.4 nM; (input ligand: none) 20.2 nM.

Take “CCCACCUCAUGAACAACAUGAGGAUCACCCAUGUUGAAGACUAAGGAUAUCGUACUCGAUGAAUGCGAGAAGGUGGCACUUCGA [Eternabot solution 36] (Eterna round: R96, puzzle: Exclusion NG 3)”: the “apparent KD of MS2 coat protein” value is 37.3 nM (input ligand: FMN 200 uM), 20.7 nM under setting [2] and 28.7 nM (input ligand: none). As to “CCCACGUGAGGAUAUUCAACGGUAAGCGAUCUAUGCACCUUGAAGAAGGCACAUGAGGAUCACCCAUGUCCUAA [Eternabot (L1) Solution 44] (Eterna round: R97, puzzle: Exclusion 4)”, the “apparent KD of MS2 coat protein” value reads like this: (input ligand: FMN 200 uM) 44.8 nM; (input ligand: none) 22.2 nM. For the sequence “CCCAGUUACUGAGGAUAUCCUACAUGAGGAUCACCCAUGUAAUAAAUGAGGAUUUCGGGUGUCUAGGAGAAGGCAGGGAUAGGC [Ostracism 23 - Jieux - Exclusion NG 2] (Eterna round: R96, puzzle: Exclusion NG 2)”, the “apparent KD of MS2 coat protein” value is, setting by setting: (input ligand: FMN 200 uM) 84.9 nM; under setting [2], 28.8 nM; (input ligand: none) 50.3 nM.

With “CCCAGUUAGAGAGGAUAUCUUACAUGAGGAUCACCCAUGUAAUAAAUGAGGAUUUCGGGUGUCUAAGAGAAGGCUCGGAUAGGC [Ostracism 29 - Jieux - Exclusion NG 2] (Eterna round: R96, puzzle: Exclusion NG 2)”, the “apparent KD of MS2 coat protein” value by setting is: (input ligand: FMN 200 uM) 37.9 nM; under setting [2], 15.3 nM; (input ligand: none) 26.4 nM. Regarding “CCCAGUUAUCUAGGAUAUUGUACAUGAGGAUCACCCAUGUAAUAAAUGAGGAUUUCGGGUGUCUACAAGAAGGAGAGGAUAGGC [Ostracism 16 - Jieux - Exclusion NG 2] (Eterna round: R96, puzzle: Exclusion NG 2)”, the “apparent KD of MS2 coat protein” value under setting [2] was determined as 20.4 nM.

For “CCCAUGUUAGGAUAUAUGGAAGGGCGGACGGGCGCCCUAAGGUAGAAGGGACAUGAGGAUCACCCAUGUAAUAA [Diquar] (Eterna round: R97, puzzle: Exclusion 4)”, the “apparent KD of MS2 coat protein” value turned out to be 194 nM (input ligand: FMN 200 uM) and 160 nM (input ligand: none). Take “CCCAUGUUAGGAUAUCGGCUCCGCCGUUCCACAUGGCGCUCCGAGAAGGAACAUGAGGAUCACCCAUGUAAAGA [Raza] (puzzle: Exclusion 4)”: the “apparent KD of MS2 coat protein” value under setting [1] is 34 nM. Take “CCCGAGCAUGUAGGAUAUGGCUCGGUGUCUGGGCCAGAAGGACAUGAGGAUCACCCAUGUCUGCGGGUGUGGAUAUGAUUUGGG [-32, -31 kcal A 20%] (Eterna round: R96, puzzle: Exclusion NG 1)”: the “apparent KD of MS2 coat protein” value (input ligand: FMN 200 uM) was found to be 85.2 nM, the “apparent KD of MS2 coat protein” value under setting [2] came to 14.5 nM and the “apparent KD of MS2 coat protein” value (input ligand: none) was 32.1 nM.

For “CCCGUCGAUGUAGGAUAUGCCCGGGUCUCCCGGGCAGAAGGACAUGAGGAUCACCCAUGUUCAUGAGGGUCGCCCAUGAAUGGG [Double but mutated MS2] (Eterna round: R96, puzzle: Exclusion NG 1)”, the “apparent KD of MS2 coat protein” value is, setting by setting: (input ligand: FMN 200 uM) 88.8 nM; under setting [2], 17 nM; (input ligand: none) 21.2 nM. Turning to “CCCGUGUAAGGAUAUGACAAUGGUAUCUUCGGAUACCAUUGUCAGAAGGUACAUGAGGAUCACCCAUGUAACAC [Ex4-3: 14] (puzzle: Exclusion 4)”, the “apparent KD of MS2 coat protein” value under setting [1] turned out to be 28 nM.

As to “CCCUCAAGCGAGGAUAUAAAUGCGCAUUCGCGGUUAGAAGGCGCUACAUGAGGAUCACCCAUGUAAUUGUAUGG [jl-ex6-4.53 ViennaUCT mod] (Eterna round: R97, puzzle: Exclusion 6)”, the “apparent KD of MS2 coat protein” value runs as follows: (input ligand: FMN 200 uM) 98.4 nM; (input ligand: none) 73.4 nM.

For “CCCUCACAUGAGGAUCACCCAUGUCAGGAUAUUCGACGGUAAAUUGGCCGUCUUAAAGGAAGAAGGGACGUAAC [Lesoorxe] (puzzle: Exclusion 1)”, the “apparent KD of MS2 coat protein” value under setting [1] worked out at 13 nM.

With “CCCUCACAUGAGGAUCACCCAUGUUAGGAUAUCUACCAGGAGCCUAAAAUGGCCCAACGGAGAAGGAACGUGCA [Arbire] (Eterna round: R96, puzzle: Exclusion 1)”, the “apparent KD of MS2 coat protein” value under setting [2] was 14.7 nM. Take “CCCUUGUGAGGAUAUUCUUAAAAUGCUAACCACAAUUUUAUGAAGAAGGCACAUGAGGAUCACCCAUGUUUCUC [mod1] (Eterna round: R97, puzzle: Exclusion 4)”: the “apparent KD of MS2 coat protein” value by setting is: (input ligand: FMN 200 uM) 80.5 nM; (input ligand: none) 96.4 nM.

For the origin of these results see the supplement of paper PMC9170038.
